From patent US20230091653

How the values were obtained:
[1] = test system: h00-7 (non-binding control antibody h00 conjugated with compound 7, mp-Leu-Ala-Glu-PABC-MMAE)
[2] = test system: h00-37 (non-binding control antibody h00 conjugated with compound 37, mp-val-cit-PABC-MMAE)
[3] = test system: h00-5 (non-binding control antibody h00 conjugated with compound 5, mp-D-Leu-Ala-Glu-PABC-MMAE)

Row | Substance | percentage of drug cleaved from the heavy chain (3 h at 37 C, pH 4.5, QToF mass spectrometry) [1] | percentage of drug cleaved from the heavy chain (3 h at 37 C, pH 4.5, QToF mass spectrometry) [2] | percentage of drug cleaved from the heavy chain (3 h at 37 C, pH 4.5, QToF mass spectrometry) [3] | percentage of drug cleaved from the heavy chain (3 h at 37 C, QToF mass spectrometry) [1] | percentage of drug cleaved from the heavy chain (3 h at 37 C, QToF mass spectrometry) [2] | percentage of drug cleaved from the heavy chain (3 h at 37 C, QToF mass spectrometry) [3]
1 | Cathepsin B | percentage of drug cleaved from the heavy chain of non-targeted ADCs 5 and 7 in vitro by Cathepsin B is similar to that found for non-targeted ADC 37 | percentage of drug cleaved from the heavy chain of non-targeted ADCs 5 and 7 in vitro by Cathepsin B is similar to that found for non-targeted ADC 37 | percentage of drug cleaved from the heavy chain of non-targeted ADCs 5 and 7 in vitro by Cathepsin B is similar to that found for non-targeted ADC 37 |  |  | 
2 | neutrophil elastase |  |  |  | the h00-5 conjugate ... has its heavy chain cleaved by neutrophil elastase to a significantly lower extent than h00-7 | percentage of drug cleaved from the heavy chain of non-targeted ADC 5 in vitro by neutrophil elastase is lower than that found for non-targeted ADC 37 | no proteolosis of h00-5 by neutrophil elastase was observed
